Measured values reported in IntAct's records for PubMed 17948060.

B1: G1/S-specific cyclin-D1 (Mus musculus), P25322 (parent)
chain: MEHQLLCCEVETIRRAYPDTNLLNDRVLRAMLKTEETCAPSVSYFKCVQKEIVPSMRKIVATWMLEVCEEQKCEEEVFPLAMNYLDRFLSLEPLKKSRLQLLGATCMFVASKMKETIPLTAEKLCIYTDNSIRPEELLQMELLLVNKLKWNLAAMTPHDFIEHFLSKMPEADENKQTIRKHAQTFVALCATDVKFISNPPSMVAAGSVVAAMQGLNLGSPNNFLSCYRTTHFLSRVIKCDPDCLRACQEQIEALLESSLRQAQQNVDPKATEEEGEVEEEAGLACTPTDVRDVDI
partner: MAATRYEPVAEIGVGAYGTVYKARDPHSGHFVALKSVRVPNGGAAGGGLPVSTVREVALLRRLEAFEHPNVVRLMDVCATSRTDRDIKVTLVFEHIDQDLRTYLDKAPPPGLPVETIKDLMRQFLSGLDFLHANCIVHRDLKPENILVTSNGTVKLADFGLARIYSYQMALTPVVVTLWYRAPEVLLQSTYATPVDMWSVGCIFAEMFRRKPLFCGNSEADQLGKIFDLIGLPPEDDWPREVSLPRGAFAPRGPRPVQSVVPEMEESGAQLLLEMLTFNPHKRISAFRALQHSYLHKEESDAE

Variants of: B1
Conditions: with cdk4_mouse Cdk4, P30285

Row | effect of a mutation on the interaction | Variant
1 | disrupting interaction | K114A
